Five molecules from patent US20220226473A1, “Nucleic acid nanocarrier drug and preparation method thereof, pharmaceutical composition and application thereof” (BAI YAO ZHI DA (BEIJING) NANOBIO TECHNOLOGY CO., LTD., priority 2018, published 2022) can be followed below.

Data set [1] can be described thus: Drug loading rate of nucleic acid nanoparticles (chemical loading, absorbance standard curve). Set-up: unit not given here. As to conditions: for doxorubicin loading rate: chemical loading method of Embodiment 5. Type of data set: physicochemical. From the text:
According to the chemical loading method (unless otherwise specified, the method is the same as that of Embodiment 5) of Embodiment 5, the RNA nanoparticles formed by the self-assembly of the previous R-15, R-16, R-17, R-18, R-19, R-20 and R-21 in Embodiment 9, and the DNA nanoparticles formed by the self-assembly of the D-8, D-9, D-10, D-11, D-12, D-13 and D-14 in Embodiment 10 are respectively used as doxorubicin loading carriers, doxorubicin loading rates measured are respectively as follows:
According to the chemical loading method (unless otherwise specified, the method is the same as that of Embodiment 5) of Embodiment 5, the DNA nanoparticles formed by the self-assembly of the previous D-10 and D-14 in Embodiment 10 are used as a daunorubicin loading carrier.
According to a chemical loading method of Embodiment 5 (unless otherwise specified, the method is the same as that of Embodiment 5, the same molar number of the epirubicin is used as a loading amount), nucleic acid nanoparticles (a molecular weight is 29550, it is similar to the RNA nanoparticles in Embodiment 1, and a difference is that a fluorescent label on a c-strand is Cy5) are used as a carrier, and respectively loaded with: epirubicin, methotrexate, pirarubicin, daunorubicin, […], 10-hydroxycamptothecin, aspirin and gemcitabine.
Herein, when a standard curve is drawn, the absorbance of the above drugs on the microplate reader is measured respectively. The absorbance of the epirubicin, methotrexate, pirarubicin, daunorubicin, […], 10-hydroxycamptothecin, aspirin and gemcitabine is respectively detected at the following wavelengths: 492 nm, 303 nm, 492 nm, 492 nm, 265 nm, 384 nm, 225 nm and 268 nm. The standard curves obtained correspondingly are respectively shown in FIG. 48a, FIG. 49, FIG. 50sa, FIG. 51, FIG. 52, FIG. 53, FIG. 54a and FIG. 55. […]

Data set [2] is described as follows: Particle size measurement (DLS hydrodynamic size). It is filed as physicochemical. To be noted: DLS hydrodynamic size. An excerpt:
1. Preparing a potential sample (conventional-sequence DNA self-assembly product D-7) and putting into a sample pool, opening a sample pool cover of an instrument, and placing the instrument;
2. opening software, and clicking a menu, so a manual measurement parameter setting dialog box appears;
3. setting a software detection parameter; and then
4. clicking Ok to complete the settings, when a measurement dialog box appears, clicking Start to start, a DLS measurement value result of a hydrodynamic size of the self-assembly product D-7 is shown below in Table 40: […]

Data set [3] has as its system HepG2 cells. The data set can be described thus: CCK8 toxicity of DNA nanoparticles and carrier drugs. As to conditions: HepG2, CCK8, 72 hours. Type of data set: cell-based. As for the experimental part: A CCK8 method is used to detect the toxicity of DNA nanoparticles and carrier drugs to HepG2.
2. A sample to be tested is diluted according to the following table and added: the original culture medium is removed and 100 μL of a culture medium of the sample to be tested with the different concentration is added, and there are 3 replicate wells in each group.
In the present embodiment, the loaded drug and the blank carrier are firstly prepared into 100 μM of stock solution using the PBS, and then diluted with the complete culture medium (biotin-free DMEM). The original drug doxorubicin is firstly prepared into 100 NM of stock solution by using the DMSO, and then diluted with the complete culture medium (biotin-free DMEM). The DMSO is directly diluted with the complete medium (biotin-free DMEM).
3. After the sample to be tested is added, the 96-well plate is placed in an incubator under 37 DEG C. and 5% CO2 and incubated for 72 hours.
4. A kit is taken out and melted at a room temperature, 10 μL of CCK-8 solution is added to each wall, or the CCK8 solution is nixed with the culture medium at a ratio of 1:9, and then added to the well in an amount of 100 μL/well.
5. It is continuously incubated in the cell incubator for 4 hours, and a length of time depends on experimental conditions such as a cell type and a el density.
6. A microplate reader is used to measure an absorbance at 450 nm.
7. Calculation: cell viability (%)=(OD experimental group−OD blank group)[…]/(OD control group−OD blank group), IC50 is calculated by GraphPad Prism 5.0.

The nature of data set [4]: Electric potential (zeta potential) measurement of self-assembly products. Type of data set: physicochemical. To be noted: result over 3 detections, at 25 DEG C. As for the experimental part: Measurement method: preparing a potential sample (the self-assembly product is dissolved in ultrapure water) and putting into a sample pool, opening a sample pool cover of an instrument, and placing the instrument;
opening software, clicking a menu MeasUre€ManUal, so a manual measurement parameter setting dialog box appears;
setting a software detection parameter;
and then clicking Ok to complete the settings, after a measurement dialog box appears, clicking start to start.
and then clicking Ok to complete the settings, after a measurement dialog box appears, clicking Start to start.
Measurement method: preparing a potential sample (the self-assembly product is dissolved in ultrapure water) and putting into a sample pool, opening a sample pool cover of an instrument, and placing the instrument:
Measurement result potential detection results of the 7 groups of the extension fragment deformation+core short-sequence RNA nanoparticles at 25 DEG C. are as follows:
setting a software detection parameter; and then
clicking Ok to complete the settings, after a measurement dialog box appears, clicking Start to start.
Measurement result potential detection results of the 7 groups of the extension fragment deformation+core short-sequence DNA nanoparticles at 25 DEG C. are as follows: […]

Data set [5] can be described thus: TM value detection by solubility curve method (SYBR Green I). Type of data set: physicochemical. As to conditions: DNA nanoparticles. As for the experimental part:
A solubility curve method is used to detect TM values of the 7 groups of the extension fragment deformation+core short-sequence RNA nanoparticles, and the samples are consistent with the potential samples.
(1) After the sample is diluted with ultrapure water, 5 μg of the diluted sample is mixed with 2 μL of SYBR Green I dye (diluted by 1:200), a final volume is 20 μL, and the dilution concentration is as follows:
(2) It is incubated for 30 min in the dark at a room temperature; and
(3) On-machine detection is performed, a program is set to start at 20 DEG C., the temperature rises per second from 0.1 DEG C. to 95 DEG C., and reading is performed every 5 s.
Due to the particularity of the RNA samples, a temperature corresponding to ½ RFUmax in a range of 20 to 90 DEG C. is used as a sample Tm value in this test.
A solubility curve method is used to detect TM values of the 7 groups of the extension fragment deformation+core short-sequence DNA nanoparticles, and the samples are consistent with the potential samples.
(1) After the sample is diluted with ultrapure water, 5 μg of the diluted sample is mixed with 2 μL of SYBR Green I dye (diluted by 1:200). a final volume is 20 μL, and the dilution concentration is as follows: […]

Data set [6] deals with HepG2 cells. The data set can be described thus: Cell binding of DNA nanoparticles and carrier drugs by FACS. It is filed as cell-based. To be noted: incubated at 37 DEG C. for 2 h, flow cytometry. The protocol:
1. A cell state is adjusted to a logarithmic growth phase, the medium is changed into a medium without biotin and folic acid, and it is incubated overnight in an incubator at 37 DEG C.
2. After incubation, cell suspension is trypsinized and collected, and centrifuged at 1000 rpm for 5 min, after the concentration is adjusted, a 2×10^6-5×10^6 cell/EP tube is taken and washed twice with 1 mL/tube of 1% BSA-PBS, and cells at the bottom of the tube is observed to prevent them from being absorbed.
3. A substance to be tested is dissolved, and the substance to be tested is diluted to a use concentration.
4. Cell supernatant is absorbed, 100 μL of a corresponding sample is added to each tube in order, light is avoided, and it is incubated at 37 DEG C. for 2 h.
5. It is washed twice with 1% BSA-PBS; and centrifuged at 1000 rpm for 5 min.
6. Finally, it is precipitated with 300 μL of PBS cell resuspension, and flow Cytometric on-machine detection (the blank carrier used in the present embodiment is labeled by Quasar670, and the doxorubicin in the carrier drug has its own fluorescence, so the detection may be performed through FL4-APC and FL2-PE respectively) is performed.
A general note: A flow cytometer gives signals particle by particle.

{Biotin} = biotin (Bio) of the a-strand; {Bio} = biotin of the strand

B1: D-8: extension fragment deformation+core short-sequence DNA nanoparticle, SEQ ID NO: 141-143, a-strand 3′ biotin (nucleic acid)
chain 1: GCGGCGAGCGGCGAGGAGCGTTGGGGCCGGAGGCCGG
chain 2: CCGGCCTCCGGCCCCTTCGGGGCCAGCCGCC
chain 3: GGCGGCAGGCCCCCATAGCCCTCGCCGCTCGCCGC
modifications: chain 1: DNA, 3' {Biotin}, backbone and methylation of C not given here; chain 2: DNA, backbone and methylation of C not given here; chain 3: DNA, backbone and methylation of C not given here; three-strand DNA nanoparticle carrier
For orientation: IC50 means the concentration that inhibits the measured activity by half. Turning to B1, the doxorubicin loading rate in data set [1] came out at 28.0. In addition, the “Mean particle size (nm)” value in data set [2] turned out to be 7.460 nm. In addition, the IC50 in the data set with HepG2 cells [3] is greater than 1 µM. Further, the “Potential ZP, Experiment result” value in data set [4] is −30.23 mV. For the same molecule, the “TM value (° C.)” value in data set [5] is 48.5 °C. Moreover, the Positive rate with HepG2 cells [6] (HepG2, 1 μM) is 96.9%; in the data set with HepG2 cells [6] (HepG2, 2 μM), 98.4%.

B2: D-12: extension fragment deformation+core short-sequence DNA nanoparticle, SEQ ID NO: 153-155, 3′ biotin (nucleic acid)
chain 1: GCGGCGAGCGGCGAGCAGCGTTCGGGCCGGAGGCCGG
chain 2: CCGGCCTCCGGCCCGTTCGGCCCCAGCCGCC
chain 3: GGCGGCAGGGGCCCATAGCGCTCGCCGCTCGCCGC
modifications: chain 1: DNA, 3' {Biotin}, backbone not given here; chain 2: DNA, backbone not given here; chain 3: DNA, backbone not given here; three-strand DNA nanoparticle carrier
Molecule B2 registered a doxorubicin loading rate in data set [1] of 27.6. The “Mean particle size (nm)” value in data set [2] is given as 6.968 nm. Moreover, the IC50 with HepG2 cells [3] is greater than 1 µM. The “Potential ZP, Experiment result” value in data set [4] is on record as −32.50 mV. Moreover, the “TM value (° C.)” value in data set [5] turned out to be 51.5 °C. For the same molecule, the Positive rate is given as 96.9% with HepG2 cells [6] (HepG2, 1 μM) and 97.1% in the data set with HepG2 cells [6] (HepG2, 2 μM).

B3: D-10: extension fragment deformation+core short-sequence DNA nanoparticle, SEQ ID NO: 147-149, 3′ biotin (nucleic acid)
chain 1: GCGGCGAGCGGCGAGGAGCGTTGGGGCCGGAGGCCGG
chain 2: CCGGCCTCCGGCCCCTTCGCCGCCAGCCGCC
chain 3: GGCGGCAGGCGGCCATAGCCCTCGCCGCTCGCCGC
modifications: chain 1: DNA, 3' {Bio}, backbone not given here; chain 2: DNA, backbone not given here; chain 3: DNA, backbone not given here; three-strand DNA nanoparticle carrier
Regarding B3, the daunorubicin loading rate in data set [1] (absorbance at 492 nm) was 24.0. This molecule also returned a doxorubicin loading rate in data set [1] of 18.9. In addition, the “Mean particle size (nm)” value in data set [2] is on record as 7.220 nm. Also, the IC50 in the data set with HepG2 cells [3] is greater than 1 µM. Further, the “Potential ZP, Experiment result” value in data set [4] is listed as −25.77 mV. Also, in data set [5], the “TM value (° C.)” value is 54.5~55.0 °C. Further, the Positive rate is given as 97.9% in the data set with HepG2 cells [6] (HepG2, 1 μM) and 98.3% in the data set on HepG2 cells [6] (HepG2, 2 μM).

B4: D-11: extension fragment deformation+core short-sequence DNA nanoparticle, SEQ ID NO: 150-152, 3′ biotin (nucleic acid)
chain 1: GCGGCGAGCGGCGAGCAGCGTTCGGGCCGGAGGCCGG
chain 2: CCGGCCTCCGGCCCGTTCGGCGCCAGCCGCC
chain 3: GGCGGCAGGCGCCCATAGCGCTCGCCGCTCGCCGC
modifications: chain 1: DNA, 3' {Bio}, backbone not given here; chain 2: DNA, backbone not given here; chain 3: DNA, backbone not given here; three-strand DNA nanoparticle carrier
In turn, B4 registered a doxorubicin loading rate in data set [1] of 26.8. In addition, in data set [2], the “Mean particle size (nm)” value came to 7.472 nm. The molecule further showed an IC50 in the data set on HepG2 cells [3] greater than 1 µM. Also, the “Potential ZP, Experiment result” value in data set [4] is −27.43 mV. Besides, in data set [5], the “TM value (° C.)” value worked out at 48.7 °C. Further, the Positive rate came to 97.7% with HepG2 cells [6] (HepG2, 1 μM) and 97.8% in the data set on HepG2 cells [6] (HepG2, 2 μM).

B5: D-9: extension fragment deformation+core short-sequence DNA nanoparticle, SEQ ID NO: 144-146, 3′ biotin (nucleic acid)
chain 1: GCGGCGAGCGGCGAGCAGCGTTCGGGCCGGAGGCCGG
chain 2: CCGGCCTCCGGCCCGTTCGCCGCCAGCCGCC
chain 3: GGCGGCAGGCGGCCATAGCGCTCGCCGCTCGCCGC
modifications: chain 1: DNA, 3' {Bio}, backbone and methylation of C not given here; chain 2: DNA, backbone and methylation of C not given here; chain 3: DNA, backbone and methylation of C not given here; three-strand DNA nanoparticle carrier
Take B5: the doxorubicin loading rate in data set [1] is on record as 27.9. Also, the “Mean particle size (nm)” value in data set [2] is 7.920 nm. In the data set with HepG2 cells [3], this molecule returned an IC50 greater than 1 µM. The “Potential ZP, Experiment result” value in data set [4] was −35.07 mV. In data set [5], the “TM value (° C.)” value amounted to 52.5 °C. Further, the Positive rate is reported as 96.7% in the data set on HepG2 cells [6] (HepG2, 1 μM) and 98.1% in the data set on HepG2 cells [6] (HepG2, 2 μM).
